Assay results as given in publication PMC3526295.

T1: Mre11-W243R (Homo sapiens, UniProt P49959 1-708, W243R)
T1 sequence: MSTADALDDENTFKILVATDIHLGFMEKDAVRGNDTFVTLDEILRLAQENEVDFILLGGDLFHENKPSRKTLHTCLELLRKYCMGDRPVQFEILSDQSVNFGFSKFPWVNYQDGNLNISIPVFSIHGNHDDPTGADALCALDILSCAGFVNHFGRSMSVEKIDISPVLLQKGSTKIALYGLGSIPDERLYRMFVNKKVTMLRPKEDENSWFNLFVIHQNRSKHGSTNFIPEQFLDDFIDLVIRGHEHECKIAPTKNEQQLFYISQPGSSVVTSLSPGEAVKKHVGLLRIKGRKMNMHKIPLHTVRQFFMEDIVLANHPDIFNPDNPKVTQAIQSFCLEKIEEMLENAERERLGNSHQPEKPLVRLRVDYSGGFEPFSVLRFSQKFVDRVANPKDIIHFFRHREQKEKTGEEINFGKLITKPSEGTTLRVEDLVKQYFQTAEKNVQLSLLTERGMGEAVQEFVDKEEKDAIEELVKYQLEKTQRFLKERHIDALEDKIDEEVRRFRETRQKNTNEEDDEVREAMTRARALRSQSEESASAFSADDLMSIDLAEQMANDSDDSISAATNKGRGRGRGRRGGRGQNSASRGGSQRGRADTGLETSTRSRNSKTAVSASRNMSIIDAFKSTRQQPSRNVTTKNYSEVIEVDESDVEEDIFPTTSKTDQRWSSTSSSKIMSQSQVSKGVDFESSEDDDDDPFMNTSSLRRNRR

B1: ssDNA90 (ssDNA)
DNA: AATTCTCATTTTACTTACCGGACGCTATTAGCAGTGGCAGATTGTACTGAGAGTGCACCATATGCGGTGTGAAATACCGCACAGATGCGT
B2: dsDNA90 (dsDNA)
DNA 1: B1 DNA
DNA 2: ACGCATCTGTGCGGTATTTCACACCGCATATGGTGCACTCTCAGTACAATCTGCCACTGCTAATAGCGTCCGGTAAGTAAAATGAGAATT

Biological target: T1, Mre11-W243R
Test: EMSA

| Binder | binding result |
| --- | --- |
| B1 | binds |
| B2 | binds |
